Experiment [1] concerns the target TSH receptor (full length human TSHR) (human) (UniProt P16473). The experiment can be described thus: competition ELISA: inhibition of M22 Fab-peroxidase (competitor) binding to TSHR coated wells; negative control at 1 µg/mL diluted in HBD serum pool.
In a further experiment the target is TSHR260-AP (human). The experiment can be described thus: TSHR260-AP bridge ELISA (full length TSHR on wells, TSHR260-AP in solution); IgG 100 µg/mL diluted in assay buffer.
In experiment [2] the target is TSH receptor (TSHR), full length human, coated on tubes (human) (UniProt P16473). The experiment is described as follows: inhibition of 125I-TSH binding to TSHR coated tubes; 0.1 µg/mL, diluted in HBD serum pool.
Experiment [3] has the same target. The experiment can be described thus: inhibition of 125I-TSH binding to TSHR coated tubes; 1 µg/mL, diluted in HBD serum pool.
Experiment [4] deals with wild type TSHR expressed in CHO cells (human) (UniProt P16473). The experiment is described as follows: cell-based or functional assay.
For experiment [5], the target named is TSHR with Asp232 mutated to Ala expressed in CHO cells (human) (UniProt P16473). The experiment can be described thus: cell-based or functional assay.
Experiment [6] concerns the target TSH receptor (TSHR), full length human, coated on tubes (human) (UniProt P16473). The experiment is described as follows: inhibition of 125I-TSH binding to TSHR coated tubes; 1 µg/mL, diluted in assay buffer.
In experiment [7] the target is wild type TSHR expressed in CHO cells (human) (UniProt P16473). The experiment is described as follows: cell-based or functional assay. This is another data set of the same source.
Experiment [8] addresses TSHR with His105 mutated to Ala (expressed in CHO cells) (human) (UniProt P16473). The experiment can be described thus: cell-based or functional assay.
For experiment [9], the target named is human thyroid stimulating hormone receptor (TSHR), full length (human) (UniProt P16473). The experiment can be described thus: 125I-K1-70 Fab (competitor) binding to TSHR coated tubes; negative control MAb 100 µg/mL in assay buffer.
Experiment [10] has as its target thyroid stimulating hormone receptor (TSHR), full length, coated on tubes (human) (UniProt P16473). The experiment can be described thus: inhibition of 125I-TSH binding, TSHR coated tubes; antibody 100 µg/mL in assay buffer.
Experiment [11] has as its target full length human TSHR with mutation Arg255 Asp (human) (UniProt P16473). The experiment can be described thus: TSHR260-AP bridge ELISA, Arg255 Asp TSHR on wells; IgG at 0.05 µg/mL in HBD.
Experiment [12] has as its target full length wild type human TSHR (human) (UniProt P16473). The experiment can be described thus: TSHR260-AP bridge ELISA, wild type TSHR on wells; IgG at 0.05 µg/mL in HBD. (In general: ELISA stands for enzyme-linked immunosorbent assay.)
For experiment [13], the target named is human thyroid stimulating hormone receptor (TSHR), full length (human) (UniProt P16473). The experiment is described as follows: 125I-K1-70 Fab (competitor) binding to TSHR coated tubes; test sample 1 µg/mL in assay buffer.
The target in experiment [14] is thyroid stimulating hormone receptor (TSHR), full length, coated on tubes (human) (UniProt P16473). The experiment can be described thus: inhibition of 125I-TSH binding, TSHR coated tubes; antibody 10 µg/mL in assay buffer.
The target in experiment [15] is full length human TSHR with mutation Arg255 Asp (human) (UniProt P16473). The experiment can be described thus: TSHR260-AP bridge ELISA, Arg255 Asp TSHR on wells; IgG at 0.005 µg/mL in HBD.
In experiment [16] the target is human thyroid stimulating hormone receptor (TSHR), full length (human) (UniProt P16473). The experiment is described as follows: 125I-K1-70 Fab (competitor) binding to TSHR coated tubes; test sample 100 µg/mL in assay buffer.
Experiment [17] deals with full length wild type human TSHR (human) (UniProt P16473). The experiment is described as follows: TSHR260-AP bridge ELISA, wild type TSHR on wells; IgG at 0.01 µg/mL in HBD.
For experiment [18], the target named is full length human TSHR with mutation Arg255 Asp (human) (UniProt P16473). The experiment can be described thus: TSHR260-AP bridge ELISA, Arg255 Asp TSHR on wells; IgG at 0.1 µg/mL in HBD.
For experiment [19], the target named is human thyroid stimulating hormone receptor (TSHR), full length (human) (UniProt P16473). The experiment can be described thus: 125I-K1-70 Fab (competitor) binding to TSHR coated tubes; test sample 100 µg/mL in HBD serum.
Experiment [20] addresses full length human TSHR with mutation Arg255 Asp (human) (UniProt P16473). The experiment can be described thus: TSHR260-AP bridge ELISA, Arg255 Asp TSHR on wells; IgG at 0.5 µg/mL in HBD.
Experiment [21] concerns the target thyroid stimulating hormone receptor (full length human TSHR) (human) (UniProt P16473). The experiment can be described thus: ELISA, inhibition of TSH-biotin binding to TSHR coated wells; 100 µg/mL, diluted in assay buffer.
For experiment [22], the target named is full length wild type human TSHR (human) (UniProt P16473). The experiment can be described thus: TSHR260-AP bridge ELISA, wild type TSHR on wells; IgG at 10 µg/mL in HBD.
In experiment [23] the target is thyroid stimulating hormone receptor (TSHR), full length human TSHR (human) (UniProt P16473). The experiment is described as follows: TSH-biotin competition ELISA, TSHR coated wells; 0.1 µg/mL in HBD serum.
Experiment [24] has as its target full length human TSHR with mutation Arg255 Asp (human) (UniProt P16473). The experiment is described as follows: TSHR260-AP bridge ELISA, Arg255 Asp TSHR on wells; IgG at 10 µg/mL in HBD.
The target in experiment [25] is human thyroid stimulating hormone receptor (TSHR), full length (human) (UniProt P16473). The experiment is described as follows: 125I-K1-70 Fab (competitor) binding to TSHR coated tubes; test sample 10 µg/mL in HBD serum.
Experiment [26] concerns the target TSHR260-alkaline phosphatase (TSHR260-AP) (human) (UniProt P05187). The experiment is described as follows: TSHR260-AP bridge ELISA, full length TSHR on wells; 0.005 µg/mL, diluted in assay buffer.
Experiment [27] has as its target thyroid stimulating hormone receptor (full length human TSHR) (human) (UniProt P16473). The experiment can be described thus: ELISA, inhibition of TSH-biotin binding to TSHR coated wells; 0.1 µg/mL, diluted in HBD serum pool.

Like-named read-outs stand apart in the source and are kept apart here.

This note sets out measurements from patent publication US20110300138A1 (published 2011).

As for 5B3 IgG (antibody), the Inhibition of binding (%) in experiment [1] is 9.7%; in experiment [2], 4.4%; in [3] it was -4.9%; in [6] it was -1.7%; in experiment [9], 1.4%. In the experiment with TSHR260-AP (human), the Mean absorbance at 405 nm (absorbance at 405 nm) is -0.011. Moreover, the % inhibition of TSH stimulation; 5B3 10 µg/mL in [4] stood at 0%; in experiment [5] it was 10%; in experiment [7] it was 2%; in experiment [8], 0%. The % inhibition of TSH stimulation; 5B3 100 µg/mL turned out to be 0% in [4], 6% in experiment [5] and 0% in [8]. The Mutated/wild type (%) of cyclic AMP produced; 5B3 10 µg/mL + TSH 3 ng/mL turned out to be 59% in [5] and 82% in experiment [8]. Further, the Mutated/wild type (%) of cyclic AMP produced; 5B3 100 µg/mL + TSH 3 ng/mL was 58% in experiment [5] and 50% in experiment [8]. The Cyclic AMP produced; 5B3 10 µg/mL + TSH 3 ng/mL was determined as 91.6 pmol/mL in experiment [7] and 75.2 pmol/mL in experiment [8]. Also, the Cyclic AMP produced; 5B3 100 µg/mL + TSH 3 ng/mL in [7] was determined as 134 pmol/mL; in experiment [8] it was 66.7 pmol/mL.
Take 9D33 IgG (antibody): the Inhibition of binding (%) amounted to 30.5% in experiment [2]; 50.8% in experiment [3]; 75.6% in experiment [10]; 50.9% in experiment [6]; 43.8% in experiment [13]; 58.7% in [14]. The Inhibition of binding (%) worked out at 62.7% in experiment [16]; 55.7% in experiment [19]; 86.8% in experiment [21]; 39% in experiment [23]; 47.7% in experiment [25]. The Mean absorbance at 405 nm (absorbance at 405 nm) in [11] is 0.02; in experiment [12] it was 0.056; in experiment [15], 0.001; in experiment [17] it was 0.011; in [18], 0.053; in experiment [20] it was 0.242. Also, the Mean absorbance at 405 nm (absorbance at 405 nm) was 0.481 in [22] and 0.534 in experiment [24].
M22 IgG (antibody): the Mean absorbance at 405 nm (absorbance at 405 nm) is 0.017 in [11]; 0.332 in [12]; -0.007 in [15]; 0.064 in [17]; 0.05 in experiment [18]; 0.262 in experiment [20]. For the same molecule, the values for the Mean absorbance at 405 nm (absorbance at 405 nm) in experiment [26], in [22] and in experiment [24] were 0.075, 1.36 and 0.551, respectively.
Consider TSH (ligand), for which the % inhibition of TSH stimulation; TSH (2), run at the end of assay in experiment [4] is 0%. For the same molecule, in experiment [5], the % inhibition of TSH stimulation; TSH (2), run at the end of assay came out at 0%; the Mutated/wild type (%) of cyclic AMP produced; TSH 3 ng/mL came out at 70%; the Mutated/wild type (%) of cyclic AMP produced; TSH (2) 3 ng/mL, run at the end of assay is 76%. In experiment [7], the % inhibition of TSH stimulation; TSH (2), run at the end of assay turned out to be 0%; the Cyclic AMP produced; TSH 3 ng/mL alone amounted to 93.6 pmol/mL; the Cyclic AMP produced; TSH (2) 3 ng/mL, run at the end of assay stood at 117 pmol/mL. In experiment [8], this molecule had a % inhibition of TSH stimulation; TSH (2), run at the end of assay of 11%; a Cyclic AMP produced; TSH 3 ng/mL alone of 65.9 pmol/mL; a Cyclic AMP produced; TSH (2) 3 ng/mL, run at the end of assay of 58.5 pmol/mL; a Mutated/wild type (%) of cyclic AMP produced; TSH 3 ng/mL alone of 70%. The molecule further registered a Mutated/wild type (%) of cyclic AMP produced; TSH (2) 3 ng/mL, run at the end of assay in [8] of 50%.

B1: 5C9 IgG (antibody, from another filing, V domains shown)
VH: EVQLVESGGGLIQPGGSLRLSCAASGFTVSSNYMSWVRQAPGKGLEWVSVTYSGGSTSYADSVKGRFTISRDNSKNTLYLQMNSLRAEDTAVYYCARGGRYCSSISCYARSGCDYWGQGTLVTVSS
VL: AIQMTQSPSSLSASVGDRVTITCRASQSISNYLNWYQQKPGKAPKLLIYAASSLQSGVPSRFSGSGSGTDFTLTISSLQPEDFATYYCQQSYSSPSTTFGQGTKLEIK
Consider B1, for which the Mean absorbance at 405 nm (absorbance at 405 nm) with TSHR260-AP (human) is 0.669; in experiment [26], -0.009. In addition, the Inhibition of binding (%) is 82.9% in [10]; 41.5% in experiment [13]; 40.5% in experiment [14]; 93.3% in [16]; 40.6% in [19]; 54.3% in [21]. For the same molecule, the Inhibition of binding (%) in experiment [27] was 10.4%; in experiment [25] it was 20.7%.
